± gives the half width of the 95% confidence interval.
Experiments:
[1] = folding stability dG unfold from trypsin proteolysis; higher = more stable
Method in brief: (§1)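 Unfolding free energy was derived, per protease or combined, against a sequence-predicted unfolded-state K50 and a shared folded-state K50, starting from K50 inferred by Bayesian fitting of sequencing counts. Digestion with trypsin and chymotrypsin was carried out on designed mini-proteins under 80 residues without cysteine in a PA-tagged cDNA display construct. Only designs with AlphaFold2 dimer inter-PAE above 15 were kept.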

[2] = folding stability dG unfold from chymotrypsin proteolysis; higher = more stable
Method in brief: as §1

[3] = folding stability dG unfold (combined trypsin and chymotrypsin); higher = more stable
Method in brief: as §1

| Sequence | folding stability dG unfold [1] | folding stability dG unfold [2] | folding stability dG unfold [3] |
| --- | --- | --- | --- |
| SAGGSGMEAKLLEEALEAELKAKGYKVEVKVTVTKSFSVQEGGLPSSTTTVTIEITVRDPKTGKKVSAGGSA [r2_434_JUSTAS] | 1.62 ± 0.09 kcal/mol | 3.09 ± 0.1 kcal/mol | 2.56 ± 0.16 kcal/mol |
| SKEKYKKPIKFTVKIEEGPVTENGEKYIKIEITYPGGYTATIIITPKKIEIKSNVPNPEKVKELVKKLVKSA [r9_662_TrMRF] | 1.62 ± 0.15 kcal/mol | 2.81 ± 0.14 kcal/mol | 2.5 ± 0.28 kcal/mol |
| SAGGSAGGMKITVEEVKVEKKEDGSYRVRIRLKNGEVLELEFESLEEALAAAKKLGAEITEIEPSAGGSAGG [r6_84_TrROS_Hall] | 3.12 ± 0.058 kcal/mol | 3.54 ± 0.038 kcal/mol | 3.35 ± 0.04 kcal/mol |
| SAGGSAGGSAGGSMTTLNLTNMSPEEIEAALKANPGPVTVTTTLPGGEITTKTYTVPPGSAGGSAGGSAGGS [r10_514_JUSTAS] | -0.0189 ± 0.047 kcal/mol | 0.644 ± 0.12 kcal/mol | 0.423 ± 0.083 kcal/mol |
| SAGGGTEIEYNPETGEIIVKVNPLIPYPFEPGSETIPLPFEGDPEAAEQEIRDLIEEHPDASFDIKPSSAGG [r13_284_TrMRF] | 0.638 ± 0.085 kcal/mol | -1.32 ± 0.17 kcal/mol | 0.0628 ± 0.061 kcal/mol |
| SAGGSAGGSMSPSSSYTIEKVSEDPSRGVITLKITYPTGESITLKLSPADEEKAEEEAKKLLESAGGSAGGS [r20_167_JUSTAS] | 1.68 ± 0.04 kcal/mol | 1.63 ± 0.1 kcal/mol | 1.63 ± 0.17 kcal/mol |
| SAGSNKPIKLKAIIEKPKEKKEIEIEIDPNESIESALKKILEKLEPEWKIVIELPNGIKIEFPPSKEMYSAG [r5_77_TrMRF] | 1.37 ± 0.083 kcal/mol | 0.0227 ± 0.18 kcal/mol | 0.91 ± 0.15 kcal/mol |
| SAGGSAGGSAGGMVVLENGDEVIVETFEFEEPVLDDVSEELREELGVVKVTVTKVTVIRRSAGGSAGGSAGG [r7_324_JUSTAS] | 1.08 ± 0.069 kcal/mol | 1.15 ± 0.059 kcal/mol | 1.11 ± 0.13 kcal/mol |
| SAGGSAMPEVKVEVEIIERDPENEDYVLVRIKVEVRFKTEDGEEVEVREERELLVFPSEEELKKALSAGGSA [r15_1019_TrROS_Hall] | 2.02 ± 0.064 kcal/mol | 1.82 ± 0.048 kcal/mol | 1.89 ± 0.33 kcal/mol |
| SAGGSAGGSAGMKPGEKVLLVKIKIKNENGEEETILVEMSLEELKKLLEEENIEVEILELSAGGSAGGSAGG [r17_313_TrROS_Hall] | 3.88 ± 0.17 kcal/mol | 2.27 ± 0.039 kcal/mol | 3.03 ± 0.1 kcal/mol |
| SAGGMMKIRIEVENPKGEKKEIELSEEELERIKEALKEGKVLTEEELKKLIELAKEKGYKVKIVEIESAGGS [r8_159_TrROS_Hall] | 0.447 ± 0.077 kcal/mol | 2.37 ± 0.074 kcal/mol | 2.09 ± 0.24 kcal/mol |
| SAGGSAGGSAGGKPKPIKIEVYYDEKTGKLLVKVTLPNGKPVTLEFDDIGDIDEVKKAAGSAGGSAGGSAGG [r7_41_TrMRF] | 1.36 ± 0.092 kcal/mol | 2.97 ± 0.16 kcal/mol | 2.44 ± 0.18 kcal/mol |
| SAGGSAPGVITFMLPLDDIPPDPDGKWTHNEIKDHIRPFIQEAFGKDDIEIDVSPHPNGWVRITIRSAGGSA [r15_562_TrROS] | 2.41 ± 0.074 kcal/mol | 2.76 ± 0.056 kcal/mol | 2.69 ± 0.079 kcal/mol |
| SAGGSAGGSEITIFIKGLPDPEAIADQIADAFGYPVKDVDVQRMPNNPWMMITVTYNGKEITISAGGSAGGS [r12_935_TrROS] | 1.58 ± 0.022 kcal/mol | 1.97 ± 0.03 kcal/mol | 1.86 ± 0.083 kcal/mol |
| SAMLVITRPDGRPYLVRLKVDKVEPSPDGTLITVEFTLELFSPDGTPETFKGTLIFDPKTGKLVLKIDPSAG [r14_789_TrMRF] | 2.83 ± 0.056 kcal/mol | 3.71 ± 0.014 kcal/mol | 3.42 ± 0.075 kcal/mol |
| SAGGGMIERYDGKIVIKLKGPNGKEWTSTTEPLPDGTARITVTHPDKVLYLEHTPEGISVVSEVSNEKSAGG [r13_619_JUSTAS] | -0.757 ± 0.33 kcal/mol | -0.426 ± 0.45 kcal/mol | -0.411 ± 0.22 kcal/mol |
| EEEVEELAKKLEEELRKKLRELFPEMSEEDIKIEEIEVEKTVTVEVNGEKKEIKVKVKIKMSEEVLERLKKS [r1_299_TrROS_Hall] | 1.98 ± 0.14 kcal/mol | 2.09 ± 0.33 kcal/mol | 1.72 ± 0.42 kcal/mol |
| SAGGSAGGSAKKKVKVVEIKITYDKEKNEYYIEAKVYNENTGETKTVRIKVKLKPGQKLKFSAGGSAGGSAG [r3_1_TrROS_Hall] | 1.65 ± 0.041 kcal/mol | 1.71 ± 0.066 kcal/mol | 1.72 ± 0.087 kcal/mol |
| SMKITPLPGPEEVAEFPETGETITITRDPSTGLVTVTYNGPGTPVTATTDPAVGTVTVNTPDGKITIPLTSA [r9_541_JUSTAS] | 0.669 ± 0.02 kcal/mol | -0.512 ± 0.22 kcal/mol | 0.346 ± 0.072 kcal/mol |
| SAGGKWRTIQLPGISIQLNPKDGTITVMMPSDMMEELKEAFGPGFEIDEIHHHPDGWMQMTIPIKPPSAGGS [r8_415_TrROS] | 1.18 ± 0.035 kcal/mol | 1.75 ± 0.11 kcal/mol | 1.57 ± 0.15 kcal/mol |
| SAGGSAGGMEIRVERDPESDLLVAELKIDGHDAIAVFDPNRPGHIEIGTTNEIPIEEIIDALLSSAGGSAGG [r6_195_TrMRF] | 0.683 ± 0.038 kcal/mol | -0.08 ± 0.32 kcal/mol | 0.152 ± 0.37 kcal/mol |

— the supplement of paper PMC12764529
